Several values for one entry are separate records, joined by “and”; a condition that tells them apart may be missing. Equal values may be shown once.
Experiments:
[1] = biological target: the molecule itself; experiment: SEC; Superdex S200 10/300 GL, 20 mM Tris pH 7, 100 mM KCl, 5 mg/mL protein; column standardized with LMW and HMW standards; peak fractions checked by anti-His Western blot
[2] = biological target: GST-CdsF (Chlamydia pneumoniae CWL029); experiment: ELISA; glutathione plate assay: GST fusion captured from lysate on glutathione coated plates, bacterial lysate over-expressing the His-tagged protein added, 4°C 2 hours; washed with 500 mM NaCl, 0.1% Triton X-100, 50 mM TRIS-HCl pH 7.5; anti-6xHis antibody, HRP, OPD, absorbance at 450 nm; positive if two standard deviations above GST alone
[3] = biological target: GST-CdsN (Chlamydia pneumoniae CWL029); experiment: as above
[4] = biological target: GST-CdsQ (Chlamydia pneumoniae CWL029); experiment: as above

B1: His-Cpn0803 (natural protein)
chain: MAAKTKTLELEDNVFLLLEGNLKRIFATPIGYTTFREFQNVVFNCANGQQEIANFFFEMLINGKLTQELAPQQKQAAHSLIAEFMMPIRVAKDIHERGEFINFITSDMLTQQERCIFLNRLARVDGQEFLLMTDVQNTCHLIRHLLARLLEAQKNPVGEKNLQEIQEEITSLKNHFDELTKALQ
notes: Cpn0803 of Chlamydia pneumoniae CWL029 (ortholog of C. trachomatis CT584), 184 amino acids; Hexamer and dimer in solution by gel filtration; a SeMet derivative was used for phasing only; also called recombinant His-Cpn0803; full-length Cpn0803; source: E. coli, over-expressed, in lysate (glutathione plate assay, GST pull-down); E. coli, purified on a column eluted with 300 mM imidazole …
For B1, the “stoichiometry N” value [1] was 6 and 2, the absorbance (450 nm) (absorbance units) [2] was 0.36 and the absorbance (450 nm) (absorbance units) [3] was 0.38. The absorbance (450 nm) (absorbance units) [4] was 0.41.
